Reference: PMC8386461

How the values were obtained:
Test in all cases: SPR
[1] = molecular target: Glycosylated human basigin (BSG-2, mammalian cell-expressed) (human)
[2] = molecular target: Nonglycosylated human basigin ectodomain (BSG-2, E. coli-expressed) (human)
[3] = molecular target: Human IgG1 CR3022 antibody (human)
Sequence of Human IgG1 CR3022 antibody (human) (heavy, as listed by the source, chain 1 of 2): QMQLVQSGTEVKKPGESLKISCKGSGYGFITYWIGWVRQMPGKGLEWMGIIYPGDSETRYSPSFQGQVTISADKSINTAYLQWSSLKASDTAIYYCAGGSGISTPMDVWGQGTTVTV
Sequence of Human IgG1 CR3022 antibody (human) (light, as listed by the source, chain 2 of 2): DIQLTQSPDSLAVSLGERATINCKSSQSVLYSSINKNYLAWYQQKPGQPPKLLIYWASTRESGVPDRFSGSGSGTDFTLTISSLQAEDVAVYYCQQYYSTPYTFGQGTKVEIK

Substance	Kd [1] [nM]	Kd [2] [nM]	Kd [3] [nM]
Plasmodium falciparum reticulocyte-binding protein homolog 5 (recombinant RH5) (from UniProt Q8IFM5 26-526) (ligand)	665	925	
SARS-CoV-2 spike receptor binding domain (from UniProt P0DTC2 319-541) (domain or fragment)			190
